From patent publication US10512676B2, “Formulations comprising recombinant acid alpha-glucosidase” (Amicus Therapeutics, Inc., priority 2016, dated 2019)

Columns and labels:
CIMPR = CIMPR (Homo sapiens, UniProt P11717); assay: CIMPR plate binding assay
Description: In addition to having a greater percentage of rhGAA that can bind to the CIMPR, it is important to understand the quality of that interaction. […] Briefly, CIMPR-coated plates were used to capture GAA. Varying concentrations of rhGAA were applied to the immobilized receptor and unbound rhGAA was washed off. The amount of remaining rhGAA was determined by GAA activity.

[1] = system: normal and Pompe fibroblast cell lines; assay: Cellular uptake of rhGAA in normal and Pompe fibroblast cell lines; format: cell-based
Description: The relative cellular uptake of ATB200 and Lumizyme® rhGAA were compared using normal and Pompe fibroblast cell lines. […] After 16-hr incubation, external rhGAA was inactivated with TRIS base and cells were washed 3-times with PBS prior to harvest. Internalized GAA measured by 4MU-α-Glucoside hydrolysis and was graphed relative to total cellular protein and the results appear in FIGS. 11A-B.

Gaa knockout mice [2] = assay: Glycogen reduction in Gaa-knockout mice; format: in vivo, mouse
Source text: Animals were given two IV bolus administrations (every other week); tissues were harvested two weeks after the last dose and analyzed for acid α-glucosidase activity and glycogen content.
Tissues were collected 14 days after last enzyme dose for glycogen measurement.

Gaa knockout mice [3] = assay: Muscle physiology and morphology in Gaa-knockout mice (LAMP1, PAS, vacuoles); format: in vivo, mouse
Description: Control mice were treated with vehicle alone. Soleus, quadriceps and diaphragm tissue is harvested two weeks after the last dose of recombinant human acid α-glucosidase. […] Semi-thin sections of quadriceps muscle embedded in epoxy resin (Epon) were stained with methylene blue and observed by […] (1000×) to determine the extent of the presence of vacuoles. Quadriceps muscle samples were analyzed immunohistochemically to determine levels of the autophagy markers microtubule-associated protein 1A/1B-light chain 3 phosphatidylethanolamine conjugate (LC3A II) and p62, the insulin-dependent glucose transporter GLUT4 and the insulin-independent glucose transporter GLUT1. […] Control mice were treated with vehicle alone. Cardiac muscle tissue was harvested two weeks after the last dose of recombinant human acid α-glucosidase and analyzed for glycogen levels, by staining with periodic acid—Schiff reagent (PAS), and for lysosome proliferation, by measuring levels of LAMPI.

Gaa KO mice = assay: Muscle function in Gaa-knockout mice, 12 biweekly administrations (grip strength, wire hang); format: in vivo, mouse; conditions: 6 months, with or without miglustat
Source text: In FIG. 18A, * indicates statistically significant compared to Lumizyme® alone (p<0.05, 2-sided t-test). In FIGS. 19A-19G, * indicates statistically significant compared to Lumizyme® alone (p<0.05, multiple comparison using Dunnett's method under one-way ANOVA analysis).

whole human blood = assay: Hemolysis in whole human blood; format: cell-based; conditions: for percent hemolysis / OD540 With Blood / % Hemolysis: 1 hour at 37° C.; for % Hemolysis: water = 100%
Description: A series of dilutions of blood (1:2, 1:3, 1:4, 1:5, and 1:10) from a human donor were prepared in saline. […] Four types of samples were tested: the test article, placebo, positive control and negative control. […] The placebo was the same as the test article except there was no ATB200 rhGAA.
Samples were incubated without agitation for 1 hour at 37° C. After incubation, the tubes were centrifuged for 10 minutes at approximately 100× g at room temperature. The amount of hemoglobin in the supernatant of each sample was analyzed spectrophotometrically at 540 nm.
The percent hemolysis for the test article was determined by the formula: […]
The percent hemolysis of water plus blood is 100%. Saline was the negative control. Hemolysis less than or equal to 10% was considered insignificant. The percent hemolysis was calculated for each concentration of the test article and for the placebo.

[4] = Flocculation in human plasma; set-up: key to Plasma Macro (precipitation/coagulation score) / Plasma Micro (precipitation/coagulation score) / Plasma Pellet (score): 0=negative; 1=very slight precipitation or pellet; 2=minimal precipitation or pellet; 3=moderate precipitation or pellet; 4=significant precipitation or pellet
Description: (§1) Test article dosing solutions (3 concentrations) and the placebo (3 concentrations) were mixed with equal volumes of human plasma and serum from a donor. […] The placebo was the same as the test article except there was no ATB200 rhGAA.
(§2) One ml of each dose of test article or placebo, was mixed with an equal volume of plasma, serum and saline. Samples were incubated for 30 minutes at room temperature. After incubation the tubes were examined macroscopically and microscopically for precipitation or coagulation. An aliquot from each tube was centrifuged at 14,000 rpm in a microcentrifuge for 10 minutes. Each tube was examined for the presence or absence of a pellet. Precipitation/coagulation and pellets were scored as follows: • 0=negative • 1=very slight precipitation or pellet • 2=minimal precipitation or pellet • 3=moderate precipitation or pellet • 4=significant precipitation or pellet

[5] = Flocculation in human serum; set-up: key to Serum Macro (precipitation/coagulation score) / Serum Micro (precipitation/coagulation score) / Serum Pellet (score): 0=negative; 1=very slight precipitation or pellet; 2=minimal precipitation or pellet; 3=moderate precipitation or pellet; 4=significant precipitation or pellet
Description: as §1, §2

[6] = Flocculation study: test article mixed with equal volume of saline (macro, micro, pellet); set-up: key: 0=negative; 1=very slight precipitation or pellet; 2=minimal precipitation or pellet; 3=moderate precipitation or pellet; 4=significant precipitation or pellet
Description: as §1, §2

Sequence of CIMPR (P11717 41-2491, species assumed): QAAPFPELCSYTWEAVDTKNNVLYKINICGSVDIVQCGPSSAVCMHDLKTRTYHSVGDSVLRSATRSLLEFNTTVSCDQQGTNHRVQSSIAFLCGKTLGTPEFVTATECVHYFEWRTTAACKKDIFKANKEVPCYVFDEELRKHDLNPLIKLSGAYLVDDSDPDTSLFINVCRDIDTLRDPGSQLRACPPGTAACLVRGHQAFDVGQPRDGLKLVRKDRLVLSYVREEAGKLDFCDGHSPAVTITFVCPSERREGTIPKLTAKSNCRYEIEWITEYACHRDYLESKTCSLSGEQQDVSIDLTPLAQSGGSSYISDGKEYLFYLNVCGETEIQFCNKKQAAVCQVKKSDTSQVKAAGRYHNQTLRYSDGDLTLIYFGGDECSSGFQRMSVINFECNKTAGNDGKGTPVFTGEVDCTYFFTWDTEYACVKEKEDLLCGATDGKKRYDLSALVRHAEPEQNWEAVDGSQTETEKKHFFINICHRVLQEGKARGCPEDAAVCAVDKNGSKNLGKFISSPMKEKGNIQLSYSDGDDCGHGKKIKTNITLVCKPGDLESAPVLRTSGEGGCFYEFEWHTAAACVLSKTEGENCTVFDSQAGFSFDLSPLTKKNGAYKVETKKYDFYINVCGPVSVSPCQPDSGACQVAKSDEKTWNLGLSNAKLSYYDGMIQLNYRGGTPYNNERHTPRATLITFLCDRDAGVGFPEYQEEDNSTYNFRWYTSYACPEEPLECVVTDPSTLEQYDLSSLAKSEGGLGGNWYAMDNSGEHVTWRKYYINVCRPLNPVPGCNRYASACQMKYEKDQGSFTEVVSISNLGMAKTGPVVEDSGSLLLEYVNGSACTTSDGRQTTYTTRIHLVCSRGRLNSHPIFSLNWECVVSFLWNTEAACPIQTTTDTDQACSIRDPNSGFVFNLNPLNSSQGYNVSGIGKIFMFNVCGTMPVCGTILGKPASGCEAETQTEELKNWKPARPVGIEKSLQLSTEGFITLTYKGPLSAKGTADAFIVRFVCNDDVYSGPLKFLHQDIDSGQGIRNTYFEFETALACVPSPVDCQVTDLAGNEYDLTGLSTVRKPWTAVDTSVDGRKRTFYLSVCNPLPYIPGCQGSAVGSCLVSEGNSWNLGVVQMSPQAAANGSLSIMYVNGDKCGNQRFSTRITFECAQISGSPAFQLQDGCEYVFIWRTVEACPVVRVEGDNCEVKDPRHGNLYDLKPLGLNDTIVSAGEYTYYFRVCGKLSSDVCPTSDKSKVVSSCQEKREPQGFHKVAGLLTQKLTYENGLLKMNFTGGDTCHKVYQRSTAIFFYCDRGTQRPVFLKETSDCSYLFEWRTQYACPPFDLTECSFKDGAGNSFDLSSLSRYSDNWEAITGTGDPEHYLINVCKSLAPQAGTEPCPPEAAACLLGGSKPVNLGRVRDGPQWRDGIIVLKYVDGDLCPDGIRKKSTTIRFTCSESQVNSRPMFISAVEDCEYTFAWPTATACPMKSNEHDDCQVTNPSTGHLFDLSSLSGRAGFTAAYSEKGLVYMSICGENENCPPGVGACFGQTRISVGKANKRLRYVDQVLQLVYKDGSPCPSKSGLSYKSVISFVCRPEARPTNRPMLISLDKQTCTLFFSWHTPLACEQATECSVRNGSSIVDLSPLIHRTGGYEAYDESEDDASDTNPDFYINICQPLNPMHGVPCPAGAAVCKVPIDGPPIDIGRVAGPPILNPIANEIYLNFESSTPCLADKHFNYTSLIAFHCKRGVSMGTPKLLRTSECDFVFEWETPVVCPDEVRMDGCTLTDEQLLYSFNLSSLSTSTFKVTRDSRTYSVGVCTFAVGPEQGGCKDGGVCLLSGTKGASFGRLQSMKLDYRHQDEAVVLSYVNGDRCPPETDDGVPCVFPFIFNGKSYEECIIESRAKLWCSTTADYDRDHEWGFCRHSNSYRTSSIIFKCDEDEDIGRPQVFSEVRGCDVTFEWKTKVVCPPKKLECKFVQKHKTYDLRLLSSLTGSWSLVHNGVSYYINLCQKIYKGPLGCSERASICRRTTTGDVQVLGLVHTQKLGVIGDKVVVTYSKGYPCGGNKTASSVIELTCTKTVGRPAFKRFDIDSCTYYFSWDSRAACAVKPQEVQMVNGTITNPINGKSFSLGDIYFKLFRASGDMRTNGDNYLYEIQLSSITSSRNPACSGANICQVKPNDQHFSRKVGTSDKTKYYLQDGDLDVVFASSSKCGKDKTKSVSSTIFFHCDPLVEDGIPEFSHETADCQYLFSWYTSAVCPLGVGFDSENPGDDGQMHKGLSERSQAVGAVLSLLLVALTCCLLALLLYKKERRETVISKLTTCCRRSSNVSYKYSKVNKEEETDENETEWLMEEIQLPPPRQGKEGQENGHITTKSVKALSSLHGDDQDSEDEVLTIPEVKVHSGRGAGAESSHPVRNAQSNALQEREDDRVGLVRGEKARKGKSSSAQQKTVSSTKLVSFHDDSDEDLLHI

## ATB200: recombinant human acid α-glucosidase expressed in CHO cells with increased content of M6P-bearing N-glycans
CIMPR; binding to CIMPR, M6P receptor plate binding assays
  Kd: 2 to 4 nM
CIMPR; versus Lumizyme, FIG. 10A
  binding to CIMPR: bound to CIMPR significantly better than Lumizyme®
[1]; 16-hr incubation
  concentration that saturates cellular receptors: about 20 nM
[1]; versus Lumizyme
  internalization into normal and Pompe fibroblast cells: internalized to a greater degree than conventional Lumizyme® rhGAA
Gaa knockout mice [2]; 20 mg/kg IV every other week, 4 injections, FIG. 13
  relative reduction of glycogen in quadriceps and triceps: greater reduction of glycogen than Lumizyme®
Gaa knockout mice [2]; 5, 10, 20 mg/kg, two IV bolus administrations every other week
  tissue glycogen depletion: deplete tissue glycogen in acid α-glucosidase (Gaa) knockout mice in a dose-dependent fashion
Gaa knockout mice [2]; ATB200 10 and 20 mg/kg vs Lumizyme 20 mg/kg
  reduction of glycogen levels in skeletal muscles: significantly better reduction of glycogen levels in skeletal muscles than Lumizyme®
Gaa knockout mice [3]; 20 mg/kg every other week, heart, diaphragm, soleus
  lysosome proliferation (LAMP1): reduction in lysosome proliferation in heart, diaphragm and skeletal muscle (soleus) tissue compared to conventional treatment with alglucosidase alfa
Gaa knockout mice [3]; 20 mg/kg every other week, heart, soleus
  punctate glycogen levels (PAS): reduction in punctate glycogen levels in heart and skeletal muscle (soleus) tissue compared to conventional treatment with alglucosidase alfa
Gaa knockout mice [3]; 20 mg/kg, two IV bolus administrations
  number of vacuoles in muscle fiber in quadriceps: significantly reduced the number of vacuoles in muscle fiber in the quadriceps of Gaa knockout mice
Gaa KO mice
  intracellular accumulation of dystrophin: lowered intracellular accumulation of dystrophin in Gaa KO mice
Whole human blood; 300 μg/ml
  percent hemolysis: −0.1%
Whole human blood; 600 μg/ml
  percent hemolysis: −1.5%
Whole human blood; 1000 μg/ml
  percent hemolysis: −1.5%
Whole human blood; Concentration 300 μg/mL
  OD540 Without Blood: 0.001
  OD540 With Blood: 0.016
  % Hemolysis: −0.10%
Whole human blood; Concentration 600 μg/mL
  OD540 Without Blood: 0.002
  OD540 With Blood: 0.003
  % Hemolysis: −1.52%
Whole human blood; Concentration 1000 μg/mL
  OD540 Without Blood: 0.003
  OD540 With Blood: 0.004
  % Hemolysis: −1.52%
[4]; Final concentration 300 μg/mL
  Plasma Macro (precipitation/coagulation score): 0
  Plasma Micro (precipitation/coagulation score): 0
  Plasma Pellet (score): 0
[4]; Final concentration 600 μg/mL
  Plasma Macro (precipitation/coagulation score): 0
  Plasma Micro (precipitation/coagulation score): 0
  Plasma Pellet (score): 0
[4]; Final concentration 1000 μg/mL
  Plasma Macro (precipitation/coagulation score): 0
  Plasma Micro (precipitation/coagulation score): 0
  Plasma Pellet (score): 0
[4]; human plasma, 14,000 rpm 10 minutes
  pellet after centrifugation: no pellets were observed
[4]; human plasma, each ATB200 concentration, 30 minutes at room temperature
  precipitation, macroscopic and microscopic: No precipitation was observed macroscopically or microscopically
[5]; Final concentration 300 μg/mL
  Serum Macro (precipitation/coagulation score): 0
  Serum Micro (precipitation/coagulation score): 0
  Serum Pellet (score): 0
[5]; Final concentration 600 μg/mL
  Serum Macro (precipitation/coagulation score): 0
  Serum Micro (precipitation/coagulation score): 0
  Serum Pellet (score): 0
[5]; Final concentration 1000 μg/mL
  Serum Macro (precipitation/coagulation score): 0
  Serum Micro (precipitation/coagulation score): 0
  Serum Pellet (score): 0
[5]; human serum, 14,000 rpm 10 minutes
  pellet after centrifugation: no pellets were observed
[5]; human serum, each ATB200 concentration, 30 minutes at room temperature
  precipitation, macroscopic and microscopic: No precipitation was observed macroscopically or microscopically
[6]; Final concentration 300 μg/mL
  Saline Macro (precipitation/coagulation score): 0
  Saline Micro (precipitation/coagulation score): 0
  Saline Pellet (score): 0
[6]; Final concentration 600 μg/mL
  Saline Macro (precipitation/coagulation score): 0
  Saline Micro (precipitation/coagulation score): 0
  Saline Pellet (score): 0
[6]; Final concentration 1000 μg/mL
  Saline Macro (precipitation/coagulation score): 0
  Saline Micro (precipitation/coagulation score): 0
  Saline Pellet (score): 0
